Measured values as given in publication PMC9112662, “Scaffold stability and P14′ residue steric hindrance in the differential inhibition of FXIIa by Aedes aegypti trypsin inhibitor versus Infestin-4” (Bioscience Reports, 2022).

These substances were tested against human Factor XIIa (human) (UniProt P00748).
Chain of human Factor XIIa (human) (P00748 20-615): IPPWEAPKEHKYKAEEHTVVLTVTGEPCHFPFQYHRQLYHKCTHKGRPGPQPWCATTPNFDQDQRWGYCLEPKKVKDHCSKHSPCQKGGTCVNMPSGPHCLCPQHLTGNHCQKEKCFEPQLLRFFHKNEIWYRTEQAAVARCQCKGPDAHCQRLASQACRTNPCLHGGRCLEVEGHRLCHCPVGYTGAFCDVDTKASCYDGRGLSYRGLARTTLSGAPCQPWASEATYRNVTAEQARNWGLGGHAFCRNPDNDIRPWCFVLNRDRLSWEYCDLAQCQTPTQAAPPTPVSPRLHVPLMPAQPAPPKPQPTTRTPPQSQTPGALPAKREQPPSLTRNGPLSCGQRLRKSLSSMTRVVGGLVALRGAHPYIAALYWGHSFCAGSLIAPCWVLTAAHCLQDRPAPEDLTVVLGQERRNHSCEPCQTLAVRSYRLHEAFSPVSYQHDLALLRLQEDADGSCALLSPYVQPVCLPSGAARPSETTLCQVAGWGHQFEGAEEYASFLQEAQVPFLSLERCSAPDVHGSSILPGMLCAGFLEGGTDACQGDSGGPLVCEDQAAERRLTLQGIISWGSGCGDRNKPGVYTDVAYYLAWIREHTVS

Q: For AaTI_Inf4 C1C3+C5C6+N27G, which IC50 of inhibition of FXIIa activity, chromogenic assay (substrate S-2302) is on record?
A: 11.4 nM

Q: How did the IC50 of inhibition of FXIIa activity, chromogenic assay (substrate S-2302) turn out when Inf4_F10P+N12I (domain or fragment) was run?
A: 22.8 nM

Q: With “Inf4_F10P+N12I+V14M (domain or fragment)” as the substance, how does the IC50 of inhibition of FXIIa activity, chromogenic assay (substrate S-2302) read?
A: 70.5 nM

Q: Inf4_F10P+V14M (domain or fragment) was tested. Which IC50 of inhibition of FXIIa activity, chromogenic assay (substrate S-2302) did it give?
A: 42.1 nM

Q: Which IC50 of inhibition of FXIIa activity, chromogenic assay (substrate S-2302) does the source give for Inf4_G25N (domain or fragment) here?
A: 54.1 nM

Q: Which IC50 of inhibition of FXIIa activity, chromogenic assay (substrate S-2302) does the source give for Inf4_N12I+V14M (domain or fragment) here?
A: 7.9 nM
